Consider six molecules from patent US20130251642A1 (US Dept. of Health and Human Services, published 2013).

Test [1] concerns the target T1, cell surface human ROR1 (human, UniProt Q01973 30-937).
T1 construct: whole, on cells; The cell type of each entry is named under assay; also called HEK 293F/hROR1; HEK 293F cells stably transfected with human ROR1
The test is described as follows: flow cytometry on primary CLL cells of one patient, IgG1 at 1 µg/mL.

The target in test [2] is T1, cell surface human ROR1. The test is described as follows: flow cytometry on primary CLL cells of one patient, IgG1 at 5 µg/mL.
In test [3] the target is T2, Fc-hROR1ig (human, UniProt Q01973 30-147, limits assumed).
T2 construct: domain: Ig; not shown: Fc domain (human IgG1 Fc is stated for Fc-hROR1; not restated for this construct)
Briefly: ELISA, Fc fusion of one or two domains of human ROR1 immobilized, antibody in IgG1 format, absorbance at 405 nm. For orientation: ELISA stands for enzyme-linked immunosorbent assay.

Another test concerns the target T3, Fc-hROR1ig+fz (human, UniProt Q01973 30-299, limits assumed).
T3 construct: domain: Ig and Frizzled; not shown: Fc domain (human IgG1 Fc is stated for Fc-hROR1; not restated for this construct)
The description is as above.

In test [4] the target is T4, Fc-hROR1kr (human, UniProt Q01973 312-391).
T4 construct: domain: Kringle; not shown: Fc domain (human IgG1 Fc is stated for Fc-hROR1; not restated for this construct)
The description is as above.

The target of test [5] is T5, Fc-hROR1 (the three extracellular domains of human ROR1 fused to the Fc domain of human IgG1) (human, UniProt Q01973 30-406).
T5 construct: extracellular domain; also called human ROR1 (Fc-hROR1); not shown: Fc domain of human IgG1
The test is described as follows: SPR on immobilized Fc-hROR1; bivalent IgG1 Y31 against monovalent Fab Y31.

Test [6] concerns the target T4, Fc-hROR1kr. Briefly: ELISA on immobilized Fc-hROR1kr (Fab data not shown).
For test [7], the target named is T2, Fc-hROR1ig. The test is described as follows: ELISA on immobilized Fc-hROR1ig (Fab data not shown).
In test [8] the target is T1, cell surface human ROR1. The test is described as follows: flow cytometry on primary CLL cells of one patient, IgG1 at 0.1 µg/mL. (A flow cytometer gives signals particle by particle.)
Test [9] has as its target T5, Fc-hROR1 (the three extracellular …). The test is described as follows: SPR on immobilized Fc-hROR1; bivalent IgG1 R12 against monovalent Fab R12.
For test [10], the target named is T6, Fc-mROR1 (mouse analogue of Fc-hROR1) (mouse, UniProt Q9Z139 30-406).
T6 construct: extracellular domain; also called mouse ROR1 (Fc-mROR1); not shown: Fc domain (human IgG1 Fc is stated for Fc-hROR1; not restated for this construct)
The test is described as follows: ELISA, antigen immobilized, antibody in IgG1 format, absorbance at 405 nm.

The next test addresses T7, Fc-hROR1fz+kr (human, UniProt Q01973 165-406, limits assumed).
T7 construct: domain: Frizzled and Kringle; also called Fc-hROR1kr+fz; Fc-ROR1fz+kr; not shown: Fc domain (human IgG1 Fc is stated for Fc-hROR1; not restated for this construct)
The test is described as follows: ELISA, Fc fusion of one or two domains of human ROR1 immobilized, antibody in IgG1 format, absorbance at 405 nm.

Test [11] addresses T6, Fc-mROR1 (mouse analogue of Fc-hROR1). The test is described as follows: SPR (Biacore X100), Fc-mROR1 immobilized on CM5 chip. (SPR reads the build-up and loss of mass on a sensor chip optically.)
The target of test [12] is T5, Fc-hROR1 (the three extracellular …). The test is described as follows: SPR on immobilized Fc-hROR1; bivalent IgG1 R11 against monovalent Fab R11.
Test [13] deals with T8, hROR2-Fc (commercially available, R&D Systems) (human, UniProt Q01974 34-403).
T8 construct: Bought from R&D Systems; also called human ROR2 (hROR2-Fc); not shown: Fc part of the bought fusion
The test is described as follows: ELISA, antigen immobilized, antibody in IgG1 format, absorbance at 405 nm.

A further test has as its target T9, Fc-hROR1fz (human, UniProt Q01973 165-299, limits assumed).
T9 construct: domain: Frizzled; not shown: Fc domain (human IgG1 Fc is stated for Fc-hROR1; not restated for this construct)
The test is described as follows: ELISA, Fc fusion of one or two domains of human ROR1 immobilized, antibody in IgG1 format, absorbance at 405 nm.

Test [14] concerns the target T8, hROR2-Fc (commercially available, R&D …). Briefly: ELISA on immobilized hROR2-Fc (Fab data not shown).

T2 sequence (Q01973 30-147 limits assumed): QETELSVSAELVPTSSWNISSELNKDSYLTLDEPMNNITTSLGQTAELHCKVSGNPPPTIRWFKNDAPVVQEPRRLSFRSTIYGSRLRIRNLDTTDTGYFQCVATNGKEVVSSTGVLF
T1 sequence (Q01973 30-937): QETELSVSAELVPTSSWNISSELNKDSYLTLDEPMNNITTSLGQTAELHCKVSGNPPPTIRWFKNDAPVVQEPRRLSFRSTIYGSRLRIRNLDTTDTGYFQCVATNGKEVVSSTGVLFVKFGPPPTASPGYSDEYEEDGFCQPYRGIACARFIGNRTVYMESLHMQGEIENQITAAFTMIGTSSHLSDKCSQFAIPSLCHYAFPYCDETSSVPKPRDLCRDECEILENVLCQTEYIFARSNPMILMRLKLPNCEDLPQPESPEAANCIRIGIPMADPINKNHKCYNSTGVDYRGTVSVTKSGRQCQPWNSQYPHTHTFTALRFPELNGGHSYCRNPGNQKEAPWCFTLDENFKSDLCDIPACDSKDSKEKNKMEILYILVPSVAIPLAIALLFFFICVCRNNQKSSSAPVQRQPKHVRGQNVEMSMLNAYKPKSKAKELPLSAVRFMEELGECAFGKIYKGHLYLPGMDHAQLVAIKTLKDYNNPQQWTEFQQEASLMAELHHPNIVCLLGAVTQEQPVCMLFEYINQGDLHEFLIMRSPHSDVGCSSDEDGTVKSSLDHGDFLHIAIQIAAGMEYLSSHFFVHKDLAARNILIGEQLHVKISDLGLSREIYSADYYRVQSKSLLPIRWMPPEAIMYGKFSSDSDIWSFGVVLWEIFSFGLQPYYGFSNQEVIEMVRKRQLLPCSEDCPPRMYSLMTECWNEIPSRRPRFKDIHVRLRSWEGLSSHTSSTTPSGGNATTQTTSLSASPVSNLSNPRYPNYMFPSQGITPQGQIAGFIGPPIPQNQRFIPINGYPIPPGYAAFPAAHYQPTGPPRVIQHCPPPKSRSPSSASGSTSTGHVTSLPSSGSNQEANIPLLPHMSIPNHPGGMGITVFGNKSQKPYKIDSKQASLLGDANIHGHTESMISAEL
T4 sequence (Q01973 312-391): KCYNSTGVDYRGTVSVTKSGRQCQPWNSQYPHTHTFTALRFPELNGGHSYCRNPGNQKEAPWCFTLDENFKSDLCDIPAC
T5 sequence (Q01973 30-406): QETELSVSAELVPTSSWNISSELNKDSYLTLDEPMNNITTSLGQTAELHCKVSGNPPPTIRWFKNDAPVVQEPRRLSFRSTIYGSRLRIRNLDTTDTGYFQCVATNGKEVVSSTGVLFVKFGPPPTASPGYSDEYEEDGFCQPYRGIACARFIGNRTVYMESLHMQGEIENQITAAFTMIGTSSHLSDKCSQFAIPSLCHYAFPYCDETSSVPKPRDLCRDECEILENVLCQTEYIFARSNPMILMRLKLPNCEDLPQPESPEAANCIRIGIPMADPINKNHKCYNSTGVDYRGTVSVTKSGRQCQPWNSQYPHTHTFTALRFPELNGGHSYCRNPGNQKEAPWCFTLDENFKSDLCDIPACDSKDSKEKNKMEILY
T8 sequence (Q01974 34-403 limits assumed): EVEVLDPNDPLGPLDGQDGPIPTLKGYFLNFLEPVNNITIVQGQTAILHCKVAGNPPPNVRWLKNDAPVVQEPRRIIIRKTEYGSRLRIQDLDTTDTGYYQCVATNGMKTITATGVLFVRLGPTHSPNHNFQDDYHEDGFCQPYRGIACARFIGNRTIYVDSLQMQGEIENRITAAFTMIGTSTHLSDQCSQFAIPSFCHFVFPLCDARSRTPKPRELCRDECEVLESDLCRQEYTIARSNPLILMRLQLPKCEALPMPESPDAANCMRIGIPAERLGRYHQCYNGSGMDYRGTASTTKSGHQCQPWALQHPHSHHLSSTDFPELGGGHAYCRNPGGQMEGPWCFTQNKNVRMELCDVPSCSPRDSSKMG
T3 sequence (Q01973 30-299 limits assumed): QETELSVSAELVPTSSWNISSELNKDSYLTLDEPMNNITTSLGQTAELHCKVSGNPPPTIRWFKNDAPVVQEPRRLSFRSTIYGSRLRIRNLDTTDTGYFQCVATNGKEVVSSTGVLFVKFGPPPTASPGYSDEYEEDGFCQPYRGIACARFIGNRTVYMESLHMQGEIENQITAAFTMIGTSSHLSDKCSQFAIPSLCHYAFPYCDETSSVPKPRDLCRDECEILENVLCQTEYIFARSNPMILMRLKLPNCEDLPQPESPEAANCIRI
T6 sequence (Q9Z139 30-406): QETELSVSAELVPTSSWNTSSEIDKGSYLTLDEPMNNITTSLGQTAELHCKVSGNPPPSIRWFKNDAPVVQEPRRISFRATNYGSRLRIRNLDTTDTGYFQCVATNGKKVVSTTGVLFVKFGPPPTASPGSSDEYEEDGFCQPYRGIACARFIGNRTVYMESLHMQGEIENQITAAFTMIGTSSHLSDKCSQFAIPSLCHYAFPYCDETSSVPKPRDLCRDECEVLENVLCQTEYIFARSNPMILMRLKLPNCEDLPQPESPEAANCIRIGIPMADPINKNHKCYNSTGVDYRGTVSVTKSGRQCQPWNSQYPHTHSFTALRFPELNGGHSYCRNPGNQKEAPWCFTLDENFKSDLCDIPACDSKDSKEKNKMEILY
T9 sequence (Q01973 165-299 limits assumed): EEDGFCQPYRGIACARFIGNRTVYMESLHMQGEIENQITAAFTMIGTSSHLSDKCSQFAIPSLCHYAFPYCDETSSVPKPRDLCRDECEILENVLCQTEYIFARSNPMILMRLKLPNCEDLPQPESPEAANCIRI
T7 sequence (Q01973 165-406 limits assumed): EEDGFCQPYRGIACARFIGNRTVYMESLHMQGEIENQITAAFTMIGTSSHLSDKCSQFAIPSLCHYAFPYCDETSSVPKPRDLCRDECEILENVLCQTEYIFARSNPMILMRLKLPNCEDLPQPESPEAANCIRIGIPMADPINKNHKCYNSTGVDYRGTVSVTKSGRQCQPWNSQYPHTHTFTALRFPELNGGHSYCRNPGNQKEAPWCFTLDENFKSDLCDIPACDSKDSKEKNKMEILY

B1: chimeric rabbit/human IgG1 Y31 (antibody, V domains shown)
VH: QSLEESGGRLVTPGTPLTLTCTVSGIDLNSHWMSWVRQAPGKGLEWIGIIAASGSTYYANWAKGRFTISKTSTTVDLRIASPTTEDTATYFCARDYGDYRLVTFNIWGPGTLVTVSS
VL: ELVMTQTPSSVSAAVGGTVTINCQASQSIGSYLAWYQQKPGQPPKLLIYYASNLASGVPSRFSGSGSGTEYTLTISGVQREDAATYYCLGSLSNSDNVFGGGTELEIL
notes: IgG1 format from vector PIGG (human gamma 1 heavy and kappa light constant regions), made in HEK 293F cells; Biotinylated for flow cytometry; also called mAb Y31
Regarding B1, the MFI with cell surface human ROR1 [1] came out at 8.3 MFI; with cell surface human ROR1 [2] it was 21.6 MFI. For the same molecule, the binding result with Fc-hROR1ig [3], in the test with Fc-hROR1ig+fz and with Fc-hROR1kr [4] was “no binding (tested: not given)” throughout. Also, the “factor of increase of virtual affinity, IgG1 against Fab” value (“factor of increase of virtual affinity” below) in test [5] is 12 fold.

B2: chimeric rabbit/human Fab Y31 (Fab, V domains shown)
VH: B1 VH
VL: B1 VL
notes: Fab with human C kappa and human CH1; SPR: purified Fab-(His)6
In the case of B2, the binding result with Fc-hROR1kr [6] and with Fc-hROR1ig [7] was “no binding” in each case.

B3: chimeric rabbit/human IgG1 R12 (antibody, V domains shown)
VH: QEQLVESGGRLVTPGGSLTLSCKASGFDFSAYYMSWVRQAPGKGLEWIATIYPSSGKTYYATWVNGRFTISSDNAQNTVDLQMNSLTAADRATYFCARDSYADDGALFNIWGPGTLVTISS
VL: ELVLTQSPSVSAALGSPAKITCTLSSAHKTDTIDWYQQLQGEAPRYLMQVQSDGSYTKRPGVPDRFSGSSSGADRYLIIPSVQADDEADYYCGADYIGGYVFGGGTQLTVTG
notes: IgG1 format from vector PIGG; The light chain is rabbit V lambda and human C kappa; the heavy chain has the human gamma 1 constant region; Made in HEK 293F cells; Biotinylated for flow cytometry; also called mAb R12
Turning to B3, the MFI with cell surface human ROR1 [8] is 89.4 MFI; with cell surface human ROR1 [1], 97.9 MFI; with cell surface human ROR1 [2], 122 MFI. Moreover, the “factor of increase of virtual affinity” value in [9] came to 5 fold. Moreover, the binding result (in test [10]; with Fc-hROR1ig [3]; in the test with Fc-hROR1fz+kr; with Fc-hROR1kr [4]) was “no binding (tested: not given)” each time.

B4: chimeric rabbit/human Fab R12 (Fab, V domains shown)
VH: B3 VH
VL: B3 VL
notes: The light chain is rabbit V lambda with human C kappa; SPR: purified Fab-(His)6
On to B4, for which the binding result in test [11] was “no binding (tested: 1.5 to 100 nM)”; with Fc-hROR1kr [6] it was “no binding”; with Fc-hROR1ig [7], “no binding”.

B5: chimeric rabbit/human IgG1 R11 (antibody, V domains shown)
VH: QSVKESEGDLVTPAGNLTLTCTASGSDINDYPISWVRQAPGKGLEWIGFINSGGSTWYASWVKGRFTISRTSTTVDLKMTSLTTDDTATYFCARGYSTYYCDFNIWGPGTLVTISS
VL: ELVMTQTPSSTSGAVGGTVTINCQASQSIDSNLAWFQQKPGQPPTLLIYRASNLASGVPSRFSGSRSGTEYTLTISGVQREDAATYYCLGGVGNVSYRTSFGGGTEVVVK
notes: IgG1 format from vector PIGG (human gamma 1 heavy and kappa light constant regions), four polypeptide chains, made in HEK 293F cells; Biotinylated for flow cytometry; also called IgG1 11; mAb R11
On to B5, for which the MFI was determined as 6.6 MFI in the test with cell surface human ROR1 [8], 18.1 MFI with cell surface human ROR1 [1] and 64.9 MFI with cell surface human ROR1 [2]. Moreover, the “factor of increase of virtual affinity” value in test [12] turned out to be 14 fold. Moreover, the binding result (in test [13]; with Fc-hROR1ig [3]; with Fc-hROR1ig+fz; with Fc-hROR1fz) was “no binding (tested: not given)” each time.

B6: chimeric rabbit/human Fab R11 (Fab, V domains shown)
VH: B5 VH
VL: B5 VL
notes: Fab with human C kappa and human CH1; For SPR it was the purified Fab-(His)6 from pET11a (HA tag removed, C-terminal His6)
B6: the binding result in test [14] is given as “no binding”.
